Measured values: publication PMC12914646 (ACS infectious diseases, 2020)

B1: fluorophosphonate-binding hydrolase F (FphF), apo form (enzyme, Staphylococcus aureus, UniProt Q2FUY3 2-253, looked up)
chain: AYISLNYHSPTIGMHQNLTVILPEDQSFFNSDTTVKPLKTLMLLHGLSSDETTYMRYTSIERYANEHKLAVIMPNVDHSAYANMAYGHSYYDYILEVYDYVHQIFPLSKKRDDNFIAGHSMGGYGTIKFALTQGDKFAKAVPLSAVFEAQNLMDLEWNDFSKEAIIGNLSSVKGTEHDPYYLLDKAVAEDKQIPKLLIMCGKQDFLYQDNLDFIDYLSRINVPYQFEDGPGDHDYAYWDQAIKRAITWMVND
B2: FphF with the heptyl acyl moiety of 4-MU heptanoate covalently linked to Ser121 (enzyme, Staphylococcus aureus, UniProt Q2FUY3 2-253, looked up)
chain: B1 chain
modifications: heptyl acyl moiety covalently linked to Ser121
B3: FphF with the 2-phenylpiperidine-1-carbonyl moiety of KT129 or KT130 covalently attached to Ser121 (enzyme, Staphylococcus aureus, UniProt Q2FUY3 2-253, looked up)
chain: B1 chain
modifications: 2-phenylpiperidine-1-carbonyl moiety covalently attached to the terminal side chain oxygen atom of Ser121

Biological target: the molecule itself
Test: crystal structure

| Protein | stoichiometry N |
| --- | --- |
| B1 | 4 |
| B2 | 4 |
| B3 | 4 |
